Laboratory results: paper PMC6748273

How the values were obtained:
Assay in all cases: purified protein
Conditions in all cases: 1.2 mM L-Trp, 25 mM Tris, 5 mM MgCl2, 50 mM KCl, pH 7.5, 35 °C
purified protein [1] = substrate: C/C(Br)=C/COP(=O)(O)OP(=O)(O)O
purified protein [2] = substrate: CC(C)=CCOP(=O)(O)OP(=O)(O)O
purified protein [3] = substrate: CC=CCOP(=O)(O)OP(=O)(O)O
purified protein [4] = substrate: CCC(=CCOP(=O)(O)OP(=O)(O)O)CC
purified protein [5] = substrate: COc1cccc(COP(=O)(O)OP(=O)(O)O)c1
purified protein [6] = substrate: COc1ccccc1COP(=O)(O)OP(=O)(O)O
purified protein [7] = substrate: O=P(O)(O)OP(=O)(O)OCC=C1CCCC1
purified protein [8] = substrate: O=P(O)(O)OP(=O)(O)OCc1ccc(Br)cc1
purified protein [9] = substrate: O=P(O)(O)OP(=O)(O)OCc1ccc(Cl)cc1
purified protein [10] = substrate: O=P(O)(O)OP(=O)(O)OCc1ccc(F)cc1
purified protein [11] = substrate: O=P(O)(O)OP(=O)(O)OCc1ccccc1

B1: FgaPT2 (Aspergillus fumigatus Af293) (protein)
chain: MKAANASSAEAYRVLSRAFRFDNEDQKLWWHSTAPMFAKMLETANYTTPCQYQYLITYKECVIPSLGCYPTNSAPRWLSILTRYGTPFELSLNCSNSIVRYTFEPINQHTGTDKDPFNTHAIWESLQHLLPLEKSIDLEWFRHFKHDLTLNSEESAFLAHNDRLVGGTIRTQNKLALDLKDGRFALKTYIYPALKAVVTGKTIHELVFGSVRRLAVREPRILPPLNMLEEYIRSRGSKSTASPRLVSCDLTSPAKSRIKIYLLEQMVSLEAMEDLWTLGGRRRDASTLEGLSLVRELWDLIQLSPGLKSYPAPYLPLGVIPDERLPLMANFTLHQNDPVPEPQVYFTTFGMNDMAVADALTTFFERRGWSEMARTYETTLKSYYPHADHDKLNYLHAYISFSYRDRTPYLSVYLQSFETGDWAVANLSESKVKCQDAACQPTSLPPDLSKTGVYYSGLH
With B1 the kcat (purified protein [1]) was 0.00783 ± 0.000167 s⁻¹, the kcat/Km (purified protein [1]) was 21.7 ± 1.67 M⁻¹ s⁻¹ and the kcat (purified protein [2]) was 0.833 ± 0.0167 s⁻¹. The kcat/Km (purified protein [2]) was 5820 ± 467 M⁻¹ s⁻¹, the kcat (purified protein [3]) was 0.0095 ± 0.000333 s⁻¹ and the kcat/Km (purified protein [3]) was 65 ± 6.67 M⁻¹ s⁻¹. For the same protein, the kcat (purified protein [4]) was 0.108 ± 0.00167 s⁻¹, the kcat/Km (purified protein [4]) was 283 ± 16.7 M⁻¹ s⁻¹ and the kcat (purified protein [5]) was 0.00283 ± 8.33e-05 s⁻¹. The kcat/Km (purified protein [5]) was 3.83 ± 0.333 M⁻¹ s⁻¹, the kcat (purified protein [6]) was 0.0322 ± 0.000833 s⁻¹ and the kcat/Km (purified protein [6]) was 56.7 ± 3.33 M⁻¹ s⁻¹. For the same protein, the kcat (purified protein [7]) was 0.084 ± 0.003 s⁻¹, the kcat/Km (purified protein [7]) was 267 ± 33.3 M⁻¹ s⁻¹ and the kcat (purified protein [8]) was 0.00223 ± 5e-05 s⁻¹. It also gave a kcat/Km (purified protein [8]) of 7 ± 0.667 M⁻¹ s⁻¹, a kcat (purified protein [9]) of 0.00327 ± 6.67e-05 s⁻¹ and a kcat/Km (purified protein [9]) of 7.67 ± 0.5 M⁻¹ s⁻¹. For the same protein, the kcat (purified protein [10]) was 0.0046 ± 6.67e-05 s⁻¹, the kcat/Km (purified protein [10]) was 11.5 ± 0.667 M⁻¹ s⁻¹ and the kcat (purified protein [11]) was 0.0227 ± 0.000333 s⁻¹. For the same protein, the kcat/Km (purified protein [11]) was 103 ± 5 M⁻¹ s⁻¹.
